Measured values taken from the DeepSol protein solubility set.

Assay: soluble on expression in E. coli; label from the status in PepcDB or PDB records

Sequence	soluble on expression in E. coli
MLEFHNVPLKTILRRAIMSLPTNFNDILRFFEKDYDTAKEDNALSARGQFLQLYPLNHLKKMTLDDYVIGKGTASFCACVEVKTRTWANMQGATALKFGIYYGKSKSDPTVRYRFTQKFGDDDSTNKEVFANVKDALLDLIQSGKELDFRAIDENPLSQMFKAKILSLYFPEHFINICSKDHLKEIAMEMGIKEQQFISKYQHLLFKKKLEHKITRNWSNPKYMSFLYAQFIRKDLSSAPAVIVKKPQKRNHPEVNFEEITDNRDLIGKKSEEYALNWEKNRLIGLGYSKLAEEIDDRRNRPTYGYDFLSFNAPGDERYIEVKSIGRDGKEGAFRFFLSGNELTVSNLSNHSKNYYFYLVQYGKDGEPCNLYVKHAQDLYTNSEMSPCAYVVRFDLEEPALEHHHHHH	soluble
MLEGVIRESITKANAKALKKDGYLIANVYGKGIENVNGAFKLNPFIKYLKEKKHLIFPVKLGDKTFEVVVQEYQKNPVTNELIHVDLLAVTKGVKSKFKVPIKHQGTPVGLKNKGILMLSKKRISVECAPEHLPDHYLVDVAPLDVNESILVRDLEKHENVKILDHDSIAVIGVIKAK	not soluble
MLEINKIHQMNCFDFLDQVENKSVQLAVIDPPYNLSKADWDSFDSHNEFLAFTYRWIDKVLDKLDKDGSLYIFNTPFNCAFICQYLVSKGMIFQNWITWDKRDGMGSAKRRFSTGQETILFFSKSKNHTFNYDEVRVPYESTDRIKHASEKGILKNGKRWFPNPNGRLCGEVWHFSSQRHKEKVNGKTVKLTHITPKPRDLIERIIRASSNPNDLVLDCFMGSGTTAIVAKKLGRNFIGCDMNAEYVNQANFVLNQLEIN	soluble
MLERTQVFVDTSYLLASFYNSWETGARAQLEIDLPEVVGVLGRMIEQQLKQPVQRQMWYDGIPDSGPHRYQRALRTCDGVQLRAGQLIEWGERRTQKAVDTRLVADLVLAGVRGQCSDIVLVSGDADMIPGVQEAANAGLRVHLYGFGWDSMSSQLRHCCDTTTILDPREDFAECMQLQVLEGPLPPVVRVKPINDAEPIEDLDFTPVPGVASPFEEVSAKDEKFSPRPSEPAEALSEQVCEAQYEISKHEGQTADSGEITESFEAAEIKVTEFFGEPAAPVAESGVEAPTPEAPTVPEAAKPTPAKPKTPKAEPQKQESPKPGTPKPKAPSPADIPPKAPADTEEHSEVEAEIEDSRPKIPSPSMMAPRRKLRSRYVPLPNEVWATAGFQTPYDVGQQYASWWFENAATSTQRDQAHLLSGGGLPPEIDRPLLQFACETLHEYTLTEAQRVALRDGFHSGIRGVLLNQRDS	soluble
MLETLSFTERDEFQRRNIAENIIKLLKPEADISPLVIDGAWGTGKSEFSIKLKNLIIEQETESKVVYVDAFKGDHAESPLLLITSAIASILPEEEKQNFIKRSLPAIRFGLKTVLKAGAGWFLRQEASEVAEEFQDAMKKASNAAIDGTIENILEDHMESEKNINSLKSCIEDISNKQKIVIIIDELDRCKPSFSTNIIETIKHIFDINNVFFILVTNTEQLKASINHIYGYSINSQKYLDKFIKYTITLPDTCLINGHNVCKTSVIYWDHLVGETTLLNKINSLVGSFICDLIQRTNLSLRETQTFSRNLNIFRLLNDNECKSNDPFINMIVVVAVFIHCFGDKEKLKQEITAESISYLADLLNIKEIPYSYERRSQIPEISIIFFGIIKDSITLNERFAPKSDEELKKFTNVYTDYEHLKFWSTTPRELMIKYINQMSFIQLEHHHHHH	not soluble
MLFCPLLLIFLIANSNGEPLPPDMKDLQNHLDTFQKAVDTGDKKALREMMPVNQRISEEKLDEFIKTRKSFKMTAKSAQATSSGITGKVDYAIGKATLLLDVVLEKSSSSPSAYKFVSISKQSIPSQRREIPDCFYTLLIMCPYDLIVALAQTAENVLKG	not soluble
MLFEGLPCLAVWCKNRLSAVLPVGGLNVSENLLEIETHPFDPVLPPKAAVMMMGTFPPKEDKRAMQFHYPNFQNDMWRVYGLVFFNDAAHFQRLSEKAFDAEKIKAFLHERGIASCPTVLKAVRQHGNASDKFLKVVETVDLAAVLAKIPECRHICTTGGKATEILLDIQGGGIKMPKTGETVPFPFAGRDLTLTRLPSTSRAYPLSLAKKAAAYRAFFEMAGLCEKQLLEHHHHHH	not soluble
MLGAIAYTGNKQSLLPELKSHFPKYNRFVDLFCGGLSVSLNVNGPVLANDIQEPIIEMYKRLINVSWDDVLKVIKQYKLSKTSKEEFLKLREDYNKTRDPLLLYVLHFHGFSNMIRINDKGNFTTPFGKRTINKNSEKRFNHFKQNCDKIIFSSLHFKDVKILDGDFVYVDPPYLITVADYNKFWSEDEEKDLLNLLDSLNDRGIKFGLSNVLEHHGKENTLLKEWSKKYNVKHLNKKYVFNIYHSKEKNGTDEVYIFN	soluble
MLGGKGRPSGVGGYRILVTTSRRPSPRIRSFVKDLSATIPGAFRFTRGHYSMEELAREAIIRGADRIVVVGERRGNPGIIRVYAVEGPERPDNIVSFIVKGVSLSRERRWGLPSLRGGEVLVARPLDSGVAVEFADAFVIAFHARLKPPEAAGYVEAVIESLDARTVAVTFRYGGAPVGPMLRLGKPAEMVKRGRRVAAALEHHHHHH	not soluble
MLGGYAHRIARIDLSTGQVEYFAPDPKDLEMYVGGRGLGVKYVFENGPQVDPLGPENLLCIMNGPLSGTRAKMSGRLAVVTKSPLTGTVTDSHMGGWTAAKLKWAGFDGLLIKGASEKPVYLLVKDGEVSIHDASDLWGKTTHETCRILRERHGEEADVMAIGPAGENLVRFANWINNDERAAGRGGTGAVAGSKKLKAIVVVGTHDKMPQPKDPELWKEADRLASATINDPKNVTAPKKGGLSLYGTNVLMNITNVMGALPTFNAQHTCIEGAEKISGEYIREHRLIKDNTCHACPVACKKMVEVHINGKTIRFESYEYESAWALGAHSGHTDTDWTGYAIYLCNAYGMDTIEAGNAIAVLMEATEKGYYQGEDGIRFGDKEGEIRVLEAIAYRKGVGDMLAEGPARFAKAIGHPEIALEVKGQSIPAYDPRGLKGMGIAYATSNRGACHLRAYTPASEILGVPYKTDPLAWEGKGKLTKLFQDLSAFTDSLDLCKFSQFAEGPEEYAKQLAAYWGRPVTPEEILRIGERIYNLERYYNNLAGWGEGSDYLPERFLKEPSDCAGSKGQVTELDRMLEEYYRERGWERGVVPPAKLQELGILSQAADD	soluble
MLGIVIATHGALSDGAKDAATVIMGATENIETVNLNSGDDVQALGGQIKTAIENVQQGDGVLVMVDLLSASPYNQAVLVINELEPALQKKIFVVSGTNLPMVLEAINHQLLGTPIAEAAQAIVAQGKESVQAWDISMTSFEDEEDEDDDF	soluble
MLGKLPQQANDYLNSFNWERQVSHAKEKLTALTKKYRITENDIQIALDDAKINFNEKLSQLQTYMI	not soluble
MLGLVSLCALILILWRVVYRSVTRPLAEQTQALQRLLDGDIDSPFPETAGVRELDTIGRLMDAFRSSVHALNRHREQLAAQVKARTAELQELVIEHRQARAEAEKASQAKSAFLAAMSHEIRTPLYGILGTAQLLADNPALNAQRDDLRAITDSGESLLTILNDILDYSAIEAGGKNVSVSDEPFEPRPLLESTLQLMSGRVKGRPIRLATEIADDVPTALMGDPRRIRQVITNLLSNALRFTDEGHIILRSRTDGEQWLVEVEDSGCGIDPAKLAEIFQPFVQVSGKRGGTGLGLTISSRLAQAMGGELSATSTPEVGSCFCLRLPLRIATAPVPKTVNQAVRLDDLRLLLIEDNPLTQRITVEMLNTSGAQVVAVGNAAQAIEALQNSEPFAAALVDFDLPDIDGITLARQLAQQYPSLVLIGFSAHVIDETLRQRTSSLFRGIIPKPVPREVLGQLLAHYLQLQVNNDQPLDVSQLNEDAHLMGAEKIHEWLILFKQHALPLLDEIDIARASQDNEKIKRAAHQLKSSCSSLGMRSASQQCAQLEQQPLSAPLPHEEITRSVAALEAWLIRKT	not soluble
MLKELEVNGKRFFLAPESNFWAIGEREEVERFYRERKDALLEEMQRYRFEVDIRTAYINPTESCNRNCPYCYIPAEIRERGTKMSYEKLEEILTVLAENGVERVIFHGAEPLMVKDEIFRAMEDFDFKYGIQTNATLLEEEDAELLMKKGASVGISLDSPYKETNDYLRGKGHYDAVMRALDFFDGYRSLNIIMTVNKHNFQHLPAMVDFLAGKVSVMLANPVRGTSPGGRELRPPEGFEDYYIKAIDRAIENTKSGRRIVIGDFANILLGLVAPTSRVLQCDISPCGGGRRFFAVSADGIYPCGEFIGMEEFRANLSALSDWSSLIEKFEVVRKRTVEQIEECRNCEFRNLCGAPCPAEIYAESGTMLRKSPYCEFYKKLALKAMDVIARGDVRNVLKLERMKAIYRVEDF	not soluble
